Measured values taken from US20150344540A1, “NOVEL GLP-1 RECEPTOR AGONISTS WITH CHOLESTEROL EFFLUX ACTIVITY” (NOVO NORDISK A/S, priority 2012, published 2015).
Where no end group is shown, it is not given here. [ ]: non-standard residue; d: D form. Aib = CC(C)(N)C(=O)O

Target: human GLP-1 receptor (human, UniProt P43220)
Assay: cell-based or functional assay

Row | Binder | CRE luciferase EC50, 0% HSA | CRE luciferase EC50, 1% HSA
1 | H[Aib]EGTFTSDVSSYLEGEAVKEFIAWLVEK[Aib]KEF-NH2 (N-terminus assumed; SMILES CC[C@H](C)[C@H](NC(=O)[C@H](Cc1ccccc1)NC(=O)[C@H](CCC(=O)O)NC(=O)[C@H](CCCCN)NC(=O)[C@@H](NC(=O)[C@H](C)NC(=O)[C@H](CCC(=O)O)NC(=O)CNC(=O)[C@H](CCC(=O)O)NC(=O)[C@H](CC(C)C)NC(=O)[C@H](Cc1ccc(O)cc1)NC(=O)[C@H](CO)NC(=O)[C@H](CO)NC(=O)[C@@H](NC(=O)[C@H](CC(=O)O)NC(=O)[C@H](CO)NC(=O)[C@@H](NC(=O)[C@H](Cc1ccccc1)NC(=O)[C@@H](NC(=O)CNC(=O)[C@H](CCC(=O)O)NC(=O)C(C)(C)NC(=O)[C@@H](N)Cc1c[nH]cn1)[C@@H](C)O)[C@@H](C)O)C(C)C)C(C)C)C(=O)N[C@@H](C)C(=O)N[C@@H](Cc1c[nH]c2ccccc12)C(=O)N[C@@H](CC(C)C)C(=O)N[C@H](C(=O)N[C@@H](CCC(=O)O)C(=O)N[C@@H](CCCCN)C(=O)NC(C)(C)C(=O)N[C@@H](CCCCN)C(=O)N[C@@H](CCC(=O)O)C(=O)N[C@@H](Cc1ccccc1)C(N)=O)C(C)C) [[Aib8,Glu23,Val25,Glu34,Lys35,Aib36,Lys37]-GLP-1-(7-37)-peptidyl-Glu-Phe amide] | 0.022 nM | 0.015 nM
2 | H[Aib]EGTFTSDVSSYLEGEKVKEFIAWLVEG[Aib]KEFL-NH2 (N-terminus assumed; SMILES CC[C@H](C)[C@H](NC(=O)[C@H](Cc1ccccc1)NC(=O)[C@H](CCC(=O)O)NC(=O)[C@H](CCCCN)NC(=O)[C@@H](NC(=O)[C@H](CCCCN)NC(=O)[C@H](CCC(=O)O)NC(=O)CNC(=O)[C@H](CCC(=O)O)NC(=O)[C@H](CC(C)C)NC(=O)[C@H](Cc1ccc(O)cc1)NC(=O)[C@H](CO)NC(=O)[C@H](CO)NC(=O)[C@@H](NC(=O)[C@H](CC(=O)O)NC(=O)[C@H](CO)NC(=O)[C@@H](NC(=O)[C@H](Cc1ccccc1)NC(=O)[C@@H](NC(=O)CNC(=O)[C@H](CCC(=O)O)NC(=O)C(C)(C)NC(=O)[C@@H](N)Cc1c[nH]cn1)[C@@H](C)O)[C@@H](C)O)C(C)C)C(C)C)C(=O)N[C@@H](C)C(=O)N[C@@H](Cc1c[nH]c2ccccc12)C(=O)N[C@@H](CC(C)C)C(=O)N[C@H](C(=O)N[C@@H](CCC(=O)O)C(=O)NCC(=O)NC(C)(C)C(=O)N[C@@H](CCCCN)C(=O)N[C@@H](CCC(=O)O)C(=O)N[C@@H](Cc1ccccc1)C(=O)N[C@@H](CC(C)C)C(N)=O)C(C)C) [[Aib8,Glu23,Lys24,Val25,Glu34,Aib36,Lys37]-GLP-1-(7-37)-peptidyl-Glu-Phe-Leu amide] | 0.461 nM | 0.111 nM
3 | H[Aib]EGTFTSDVSSYLEGEKVKEFIAWLVEK[Aib]KEFL-NH2 (N-terminus assumed; SMILES CC[C@H](C)[C@H](NC(=O)[C@H](Cc1ccccc1)NC(=O)[C@H](CCC(=O)O)NC(=O)[C@H](CCCCN)NC(=O)[C@@H](NC(=O)[C@H](CCCCN)NC(=O)[C@H](CCC(=O)O)NC(=O)CNC(=O)[C@H](CCC(=O)O)NC(=O)[C@H](CC(C)C)NC(=O)[C@H](Cc1ccc(O)cc1)NC(=O)[C@H](CO)NC(=O)[C@H](CO)NC(=O)[C@@H](NC(=O)[C@H](CC(=O)O)NC(=O)[C@H](CO)NC(=O)[C@@H](NC(=O)[C@H](Cc1ccccc1)NC(=O)[C@@H](NC(=O)CNC(=O)[C@H](CCC(=O)O)NC(=O)C(C)(C)NC(=O)[C@@H](N)Cc1c[nH]cn1)[C@@H](C)O)[C@@H](C)O)C(C)C)C(C)C)C(=O)N[C@@H](C)C(=O)N[C@@H](Cc1c[nH]c2ccccc12)C(=O)N[C@@H](CC(C)C)C(=O)N[C@H](C(=O)N[C@@H](CCC(=O)O)C(=O)N[C@@H](CCCCN)C(=O)NC(C)(C)C(=O)N[C@@H](CCCCN)C(=O)N[C@@H](CCC(=O)O)C(=O)N[C@@H](Cc1ccccc1)C(=O)N[C@@H](CC(C)C)C(N)=O)C(C)C) [[Aib8,Glu23,Lys24,Val25,Glu34,Lys35,Aib36,Lys37]-GLP-1-(7-37)-peptidyl-Glu-Phe-Leu amide] | 0.487 nM | 0.174 nM
4 | H[Aib]EGTFTSDVSSYLEGEAVKEFVQWLVEK[Aib]KEFL-NH2 (N-terminus assumed; SMILES CC(C)C[C@H](NC(=O)[C@H](Cc1ccccc1)NC(=O)[C@H](CCC(=O)O)NC(=O)[C@H](CCCCN)NC(=O)C(C)(C)NC(=O)[C@H](CCCCN)NC(=O)[C@H](CCC(=O)O)NC(=O)[C@@H](NC(=O)[C@H](CC(C)C)NC(=O)[C@H](Cc1c[nH]c2ccccc12)NC(=O)[C@H](CCC(N)=O)NC(=O)[C@@H](NC(=O)[C@H](Cc1ccccc1)NC(=O)[C@H](CCC(=O)O)NC(=O)[C@H](CCCCN)NC(=O)[C@@H](NC(=O)[C@H](C)NC(=O)[C@H](CCC(=O)O)NC(=O)CNC(=O)[C@H](CCC(=O)O)NC(=O)[C@H](CC(C)C)NC(=O)[C@H](Cc1ccc(O)cc1)NC(=O)[C@H](CO)NC(=O)[C@H](CO)NC(=O)[C@@H](NC(=O)[C@H](CC(=O)O)NC(=O)[C@H](CO)NC(=O)[C@@H](NC(=O)[C@H](Cc1ccccc1)NC(=O)[C@@H](NC(=O)CNC(=O)[C@H](CCC(=O)O)NC(=O)C(C)(C)NC(=O)[C@@H](N)Cc1c[nH]cn1)[C@@H](C)O)[C@@H](C)O)C(C)C)C(C)C)C(C)C)C(C)C)C(N)=O) [[Aib8,Glu23,Val25,Val29,Gln30,Glu34,Lys35,Aib36,Lys37]-GLP-1-(7-37)-peptidyl-Glu-Phe-Leu amide] | 0.126 nM | 0.037 nM
5 | HAQGTFTSDYSKYLDSKAAREFVQWLLEKVKEFL-NH2 [[Ala2,Lys17,Ala18,Arg20,Glu21,Leu27,Glu28,Lys29]-Glucagonyl-(1-29)-Val-Lys-Glu-Phe-Leu amide] | 0.971 nM | 0.231 nM
6 | H[Aib]EGTFTSDVSSYLEGERVKEFIAWLVEK[Aib]KEFL-NH2 (N-terminus assumed; SMILES CC[C@H](C)[C@H](NC(=O)[C@H](Cc1ccccc1)NC(=O)[C@H](CCC(=O)O)NC(=O)[C@H](CCCCN)NC(=O)[C@@H](NC(=O)[C@H](CCCNC(=N)N)NC(=O)[C@H](CCC(=O)O)NC(=O)CNC(=O)[C@H](CCC(=O)O)NC(=O)[C@H](CC(C)C)NC(=O)[C@H](Cc1ccc(O)cc1)NC(=O)[C@H](CO)NC(=O)[C@H](CO)NC(=O)[C@@H](NC(=O)[C@H](CC(=O)O)NC(=O)[C@H](CO)NC(=O)[C@@H](NC(=O)[C@H](Cc1ccccc1)NC(=O)[C@@H](NC(=O)CNC(=O)[C@H](CCC(=O)O)NC(=O)C(C)(C)NC(=O)[C@@H](N)Cc1c[nH]cn1)[C@@H](C)O)[C@@H](C)O)C(C)C)C(C)C)C(=O)N[C@@H](C)C(=O)N[C@@H](Cc1c[nH]c2ccccc12)C(=O)N[C@@H](CC(C)C)C(=O)N[C@H](C(=O)N[C@@H](CCC(=O)O)C(=O)N[C@@H](CCCCN)C(=O)NC(C)(C)C(=O)N[C@@H](CCCCN)C(=O)N[C@@H](CCC(=O)O)C(=O)N[C@@H](Cc1ccccc1)C(=O)N[C@@H](CC(C)C)C(N)=O)C(C)C) [[Aib8,Glu23,Arg24,Val25,Glu34,Lys35,Aib36,Lys37]-GLP-1-(7-37)-peptidyl-Glu-Phe-Leu amide] | 1.08 nM | 0.273 nM
7 | HAEGTFTSDLSKQMEEEAVREFIEWLKNKVLEFL-NH2 [[Ala2,Glu21,Lys29,Val30,Leu31,Glu32,Phe33,Leu34]-Exendin-4-(1-34)-peptide amide] | 0.031 nM | 0.02 nM
8 | H[Aib]EGTFTSDVSSYLEGE[Aib]VKEFI[Aib]WLVEK[Aib]KEFL-NH2 (N-terminus assumed; SMILES CC[C@H](C)[C@H](NC(=O)[C@H](Cc1ccccc1)NC(=O)[C@H](CCC(=O)O)NC(=O)[C@H](CCCCN)NC(=O)[C@@H](NC(=O)C(C)(C)NC(=O)[C@H](CCC(=O)O)NC(=O)CNC(=O)[C@H](CCC(=O)O)NC(=O)[C@H](CC(C)C)NC(=O)[C@H](Cc1ccc(O)cc1)NC(=O)[C@H](CO)NC(=O)[C@H](CO)NC(=O)[C@@H](NC(=O)[C@H](CC(=O)O)NC(=O)[C@H](CO)NC(=O)[C@@H](NC(=O)[C@H](Cc1ccccc1)NC(=O)[C@@H](NC(=O)CNC(=O)[C@H](CCC(=O)O)NC(=O)C(C)(C)NC(=O)[C@@H](N)Cc1c[nH]cn1)[C@@H](C)O)[C@@H](C)O)C(C)C)C(C)C)C(=O)NC(C)(C)C(=O)N[C@@H](Cc1c[nH]c2ccccc12)C(=O)N[C@@H](CC(C)C)C(=O)N[C@H](C(=O)N[C@@H](CCC(=O)O)C(=O)N[C@@H](CCCCN)C(=O)NC(C)(C)C(=O)N[C@@H](CCCCN)C(=O)N[C@@H](CCC(=O)O)C(=O)N[C@@H](Cc1ccccc1)C(=O)N[C@@H](CC(C)C)C(N)=O)C(C)C) [[Aib8,Glu23,Aib24,Val25,Aib30,Glu34,Lys35,Aib36,Lys37]-GLP-1-(7-37)-peptidyl-Glu-Phe-Leu amide] | 0.396 nM | 0.193 nM
9 | H[Aib]EGTFTSDVSSYLEGEAVKEFIAWLVEK[Aib]KE-NH2 (N-terminus assumed; SMILES CC[C@H](C)[C@H](NC(=O)[C@H](Cc1ccccc1)NC(=O)[C@H](CCC(=O)O)NC(=O)[C@H](CCCCN)NC(=O)[C@@H](NC(=O)[C@H](C)NC(=O)[C@H](CCC(=O)O)NC(=O)CNC(=O)[C@H](CCC(=O)O)NC(=O)[C@H](CC(C)C)NC(=O)[C@H](Cc1ccc(O)cc1)NC(=O)[C@H](CO)NC(=O)[C@H](CO)NC(=O)[C@@H](NC(=O)[C@H](CC(=O)O)NC(=O)[C@H](CO)NC(=O)[C@@H](NC(=O)[C@H](Cc1ccccc1)NC(=O)[C@@H](NC(=O)CNC(=O)[C@H](CCC(=O)O)NC(=O)C(C)(C)NC(=O)[C@@H](N)Cc1c[nH]cn1)[C@@H](C)O)[C@@H](C)O)C(C)C)C(C)C)C(=O)N[C@@H](C)C(=O)N[C@@H](Cc1c[nH]c2ccccc12)C(=O)N[C@@H](CC(C)C)C(=O)N[C@H](C(=O)N[C@@H](CCC(=O)O)C(=O)N[C@@H](CCCCN)C(=O)NC(C)(C)C(=O)N[C@@H](CCCCN)C(=O)N[C@@H](CCC(=O)O)C(N)=O)C(C)C) [[Aib8,Glu23,Val25,Glu34,Lys35,Aib36,Lys37]-GLP-1-(7-37)-peptidyl-Glu amide] | 0.014 nM | 0.005 nM
10 | HAEGTFTSDVSSYLEGEAVKEFIAWLVEKVKEFL-NH2 [[Glu23,Val25,Glu34,Lys35,Val36,Lys37]-GLP-1-(7-37)-peptidyl-Glu-Phe-Leu amide] | 0.44 nM | 0.171 nM
